Measurements as given in PMC5085138, “Novel CD7-specific nanobody-based immunotoxins potently enhanced apoptosis of CD7-positive malignant cells” (Oncotarget, 2016).

B1: VHH10, CD7-specific nanobody (VHH)
VHH: DVQLQESGGGSVQAGGSLRLSCAASGYTHSSYCMAWFRQAPGREREGVASIDSDGTTSYADSVKGRFTISQDNAKNTLYLQMNSLKPEDTAMYYCAARFGPMGCVDLSTLSFGHWGQGTQVTVSI
notes: source: E. coli BL21 (DE3), pET28a, purified (Ni-NTA)
B2: CD7 on CD7-positive T-cell lines Jurkat and CEM (receptor)
chain: AQEVQQSPHCTTVPVGASVNITCSTSGGLRGIYLRQLGPQPQDIIYYEDGVVPTTDRRFRGRIDFSGSQDNLTITMHRLQLSDTGTYTCQAITEVNVYGSGTLVLVTEEQSQGWHRCSDAPPRASALPAPPTGSALPDPQTASALPDPPAASALPAALAVISFLLGLGLGVACVLARTQIKKLCSWRDKNSAACVVYEDMSHSRCNTLSSPNQYQ
notes: CD7, cell surface glycoprotein of the immunoglobulin superfamily, endogenous on the human T-ALL cell lines Jurkat and CEM; Also used as the target in the functional rows on patient-derived primary AML and T-ALL cells; source: endogenous, on Jurkat and CEM cells
B3: VHH6, CD7-specific nanobody (VHH)
VHH: DVQLQESGGGLVQAGGSLRLSCAVSGYPYSSYCMGWFRQAPGKEREGVAAIDSDGRTRYADSVKGRFTISQDNAKNTLYLQMNRMKPEDTAMYYCAARFGPMGCVDLSTLSFGHWGQGTQVTVSI
notes: Selected from a phage library of animals immunized with Jurkat cells (llama in the results, Camelus dromedarius in the methods); Monomer by SEC; also called parental nanobody; source: E. coli BL21 (DE3), pET28a, purified (Ni-NTA)

Assays:
Conditions in all cases: one partner purified
[1] = molecular target: B2; experiment: flow cytometry on cells; nanobody or immunotoxin at different concentrations incubated with Jurkat cells on ice; detected with APC anti-HA or Alexa Fluor 488 anti-His antibody; saturation curves, Scatchard plots, nonlinear regression (Prism)
[2] = molecular target: T1, PG001, monovalent CD7 nanobody-based immunotoxin (VHH6-PE38-KDEL) (Pseudomonas (species )); experiment: flow cytometry on cells
T1 construct: also called pET28a-VHH6-PE38-KDEL; not shown: His6, N-terminal, kept

[3] = molecular target: T2, PG002, bivalent CD7 nanobody-based immunotoxin (dVHH6-PE38-KDEL) (Pseudomonas (species )); experiment: flow cytometry on cells
T2 construct: also called pET28a-dVHH6-PE38-KDEL; not shown: His6, N-terminal, kept

| Binder | Kd [1] | Kd [2] | Kd [3] |
| --- | --- | --- | --- |
| B1 | 29.6 nM | – | – |
| B2 | – | 16.7 nM | 3.61 nM |
| B3 | 15.4 nM | – | – |
